Measurements: article PMC4571865, “Structural Basis for Antigen Recognition by Transglutaminase 2-specific Autoantibodies in Celiac Disease*” (The Journal of Biological Chemistry, 2015)

Legend:
Conditions in all cases: both partners purified
[1] = target: T1, transglutaminase 2 mutant R116A (Homo sapiens (assumed; human TG2 …, UniProt P21980, R116A); assay: SPR; BIAcore 3000; anti-TG2 antibodies amine-coupled to CM5 chips (700-2300 RU); WT or mutant TG2 injected in HBS-EP (0.01 M HEPES, 0.15 M NaCl, 2 mM EDTA, 0.05% P20, pH 7.4), 40 ul/min, 25 °C; relative binding at 500 nM, kinetics from serial dilutions (15.6/156-500/5000 nM); 1:1 Langmuir model; reference cell with a non-TG2 reactive antibody
T1 construct: transglutaminase 2 (TG2); also called TG2 R116A
T1 sequence (P21980 whole entry R116A): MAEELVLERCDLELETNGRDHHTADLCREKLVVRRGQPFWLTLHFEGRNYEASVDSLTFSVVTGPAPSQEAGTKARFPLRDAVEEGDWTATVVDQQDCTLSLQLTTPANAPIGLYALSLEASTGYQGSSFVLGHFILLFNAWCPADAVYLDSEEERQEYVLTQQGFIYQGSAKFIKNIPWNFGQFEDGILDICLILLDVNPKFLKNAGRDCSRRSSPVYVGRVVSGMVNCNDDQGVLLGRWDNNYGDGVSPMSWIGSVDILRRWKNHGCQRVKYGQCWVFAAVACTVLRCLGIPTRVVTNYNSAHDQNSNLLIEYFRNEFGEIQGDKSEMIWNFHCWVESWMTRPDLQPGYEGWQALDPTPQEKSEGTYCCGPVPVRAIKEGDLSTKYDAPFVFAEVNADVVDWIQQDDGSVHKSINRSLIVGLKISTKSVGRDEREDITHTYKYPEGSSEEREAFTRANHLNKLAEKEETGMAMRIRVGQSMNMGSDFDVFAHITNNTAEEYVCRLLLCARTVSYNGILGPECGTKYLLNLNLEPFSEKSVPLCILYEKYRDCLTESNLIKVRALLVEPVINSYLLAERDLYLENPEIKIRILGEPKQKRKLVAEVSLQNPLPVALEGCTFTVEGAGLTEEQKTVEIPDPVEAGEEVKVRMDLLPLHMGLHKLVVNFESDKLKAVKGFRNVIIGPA

[2] = target: T2, transglutaminase 2 mutant K30A (Homo sapiens (assumed; human TG2 …, UniProt P21980, K30A); assay: as above
T2 construct: transglutaminase 2 (TG2); also called TG2 K30A
T2 sequence (P21980 whole entry K30A): as the sequence (P21980 whole entry R116A) above, with K30A, A116R counted along it

[3] = target: T3, transglutaminase 2, wild type (UniProt P21980); assay: as above
T3 construct: transglutaminase 2 (TG2); For the complex, native PAGE and SAXS the protein was incubated with 1 mM GDP (closed conformation); SASBDB SASDA28, SASDA38 and SASDA48 hold the SAXS data of TG2-GDP, the Fab and the complex; also called TG2; WT TG2
T3 sequence (P21980 whole entry): as the sequence (P21980 whole entry R116A) above, with A116R counted along it

[4] = target: T4, transglutaminase 2 mutant R19S (Homo sapiens (assumed; human TG2 …, UniProt P21980, R19S); assay: as above
T4 construct: transglutaminase 2 (TG2); also called TG2 R19S
T4 sequence (P21980 whole entry R19S): as the sequence (P21980 whole entry R116A) above, with R19S, A116R counted along it

[5] = target: T3, transglutaminase 2, wild type; assay: SAXS; complex of TG2-GDP and 679-14-E06 Fab in solution, data at 9 mg/ml; molecular weight estimates and ab initio models; beamline P12, PETRA III

Kd [1] [nM] | koff [1] [s⁻¹] | kon [1] [M⁻¹ s⁻¹] | Kd [2] [nM] | koff [2] [s⁻¹] | kon [2] [M⁻¹ s⁻¹] | Kd [3] [nM] | koff [3] [s⁻¹] | kon [3] [M⁻¹ s⁻¹] | Kd [4] [nM] | koff [4] [s⁻¹] | kon [4] [M⁻¹ s⁻¹] | stoichiometry N [5] | Binder
240 | 0.00736 | 30600 | 49.9 | 0.00353 | 70800 | 55.5 | 0.00474 | 85300 | 147 | 0.00525 | 35800 | – | anti-TG2 antibody 679-14-E06 (human IgG1) (antibody, V domains shown, constant region of human IgG1; IgG1; derived from a single gut IgA plasma cell of a celiac disease patient; Residues 142-149, 198-207, 225-231 of the heavy chain and 172-175, 228-234 of the light chain lack electron density in PDB 4ZD3 (IMGT numbering); source: HEK 293F cells, co-transfected heavy and light chain plasmids; purified from culture supernatant (protein G column)) VH: EVQLVQSGAEVKKPGESLKISCKGSGYSFTSYWIGWVRQMPGKGLEWMGIIYPGDSDTRYSPSFQGQVTISADKSISTAYLQWSSLKASDTAMYYCARPHYYDSLDAFDIWGQGTMVTVSS VL: not shown
– | – | – | – | – | – | – | – | – | – | – | – | 1 | Fab fragment of antibody 679-14-E06 (Fab, V domains shown, Electron density is missing for residues 142-149, 198-207, 225-231 of the heavy chain and 172-175, 228-234 of the light chain in PDB 4ZD3 (IMGT numbering); also called the Fab fragment; source: HEK 293F cells, co-transfected heavy and light chain plasmids; purified from culture supernatant (protein L column)) VH: EVQLVQSGAEVKKPGESLKISCKGSGYSFTSYWIGWVRQMPGKGLEWMGIIYPGDSDTRYSPSFQGQVTISADKSISTAYLQWSSLKASDTAMYYCARPHYYDSLDAFDIWGQGTMVTVSS VL: not shown
